Test [1] deals with Manduca sexta brush border membrane vesicles (BBMV). Briefly: 125I-labelled control phage added to 10 µg of BBMV with 100-fold excess of unlabeled Cry1Ac, 62,319 cpm added.
Test [2] has the same target. Briefly: micropanning on 100 µg of BBMV with an excess of free Cry1Ac as competitor, yield relative to BBMV without competitor.
For test [3], the target named is Bovine serum albumin (bovine) (UniProt P02769). Briefly: micropanning in microtiter wells; control sample, set to 1.0 by definition.
Chain of Bovine serum albumin (bovine) (P02769 25-607 limits assumed): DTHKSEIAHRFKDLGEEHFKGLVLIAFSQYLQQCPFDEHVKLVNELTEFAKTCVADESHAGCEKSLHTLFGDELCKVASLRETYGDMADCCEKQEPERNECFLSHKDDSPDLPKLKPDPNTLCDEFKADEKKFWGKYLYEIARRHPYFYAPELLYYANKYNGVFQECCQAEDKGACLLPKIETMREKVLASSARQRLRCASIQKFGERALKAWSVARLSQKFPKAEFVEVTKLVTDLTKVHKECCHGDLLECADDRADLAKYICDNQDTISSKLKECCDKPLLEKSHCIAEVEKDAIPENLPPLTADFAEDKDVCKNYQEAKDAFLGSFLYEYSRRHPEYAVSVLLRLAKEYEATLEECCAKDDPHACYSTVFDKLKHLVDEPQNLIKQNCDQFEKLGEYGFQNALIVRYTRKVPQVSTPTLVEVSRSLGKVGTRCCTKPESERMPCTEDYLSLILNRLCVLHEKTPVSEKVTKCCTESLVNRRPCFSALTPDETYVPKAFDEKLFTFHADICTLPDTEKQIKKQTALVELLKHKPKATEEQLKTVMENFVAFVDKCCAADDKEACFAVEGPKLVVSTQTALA
Test [4] deals with Manduca sexta brush border membrane vesicles (BBMV). The experiment in a line: 125I-labelled control phage added to 10 µg of BBMV with 100-fold excess of unlabeled Cry1Ac.
Test [5] shares this target. Briefly: 125I-labelled control phage added to 10 µg of BBMV, no competitor.
Test [6] shares this target. The experiment in a line: micropanning on 100 µg of BBMV; control sample, set to 1.0 by definition.
For test [7] the target is unchanged. The experiment in a line: 125I-labelled control phage added to 10 µg of BBMV, no competitor, 62,319 cpm added.
The target is the same in test [8]. Briefly: 125I-labelled phage added to 10 µg of BBMV with 100-fold excess of unlabeled Cry1Ac.
Test [9] shares this target. The experiment in a line: 125I-labelled phage added to 10 µg of BBMV, no competitor.
For test [10] the target is unchanged. The experiment in a line: 125I-labelled phage added to 10 µg of BBMV with 100-fold excess of unlabeled Cry1Ac, 105,252 cpm added.
For test [11] the target is unchanged. The experiment in a line: 125I-labelled phage on 10 µg of BBMV, competitor 100-fold excess of unlabeled Cry1Ac.
Test [12] shares this target. The experiment in a line: 125I-labelled phage added to 10 µg of BBMV, no competitor, 105,252 cpm added.
Test [13] has the same target. The experiment in a line: 125I-labelled toxin added to 10 µg of BBMV with 100-fold excess of unlabeled Cry1Ac.
Test [14] shares this target. The experiment in a line: 125I-labelled toxin added to 10 µg of BBMV, no competitor.
For test [15] the target is unchanged. The experiment in a line: 125I-labelled toxin added to 10 µg of BBMV with 100-fold excess of unlabeled Cry1Ac, 98,242 cpm added.
The target is the same in test [16]. The experiment in a line: 125I-labelled toxin added to 10 µg of BBMV, no competitor, 98,242 cpm added.
For test [17] the target is unchanged. Briefly: 125I-labelled toxin on 10 µg of BBMV, competitor 100-fold excess of unlabeled Cry1Ac.

On to “WT-fUSE5 phage (fUSE5 vector phage without insert, grown in JM109) (from UniProt P03661 19-424)”, for which the results for the mean cpm bound (n = 2) in test [1] and in [7] were 4740 cpm and 3780 cpm, respectively. Further, the figures for the relative yield (relative to control sample) in test [2], in [3] and in test [6] were 0.24, 1 and 1, respectively. Moreover, the % cpm bound was determined as 7.6% in test [4] and 6.1% in test [5].
With “1Ac-fUSE5 phage (filamentous fd phage displaying the Cry1Ac-cpIII fusion protein) (from UniProt P05068 1-611; P03661 48-424)”, the % cpm bound in [8] was determined as 10.7%; in test [9] it was 11.7%. Also, the relative yield (relative to control sample) in [2] is 1.7; in [3], 1; in test [6], 1. Besides, the mean cpm bound (n = 2) in [10] came to 11200 cpm; in test [12] it was 12300 cpm. Besides, in test [11], the % competition stood at 8.5%.
Consider “purified, trypsin-activated HD-73 Cry1Ac toxin (65 kDa) from Bacillus thuringiensis subsp. kurstaki (from UniProt P05068 29-623)”, for which the % cpm bound worked out at 4.3% in test [13] and 12.9% in test [14]. Also, the mean cpm bound (n = 2) in test [15] was 4260 cpm; in [16] it was 12700 cpm. In addition, in [17], the % competition was determined as 66.5%.
